B1: SSAP_217: SEQ ID NO: 386; Streptomyces noursei (protein, listed as Streptomyces noursei)
chain: TSPIRAAVARRAGDPAALISQYTADFAAVLPSHIKPATFVRLAQGILRRDEKLAQAAANDPGQFMSVLLDAARLGLEPGTEAYYLVPFKGRVQGIVGWQGEIELMYRAGAISSVIVETVREDDVFVWTPGLVDRETPPRWEGPMSYPFHEVEWAGDRGPLRLVYAYAVMKGGATSKVVVLNAQDIERAKKTSQGADSPSSPWRQHEAAMWSKTAVHRLAKYVPTSAEYITAQVRAVRQADALSAPPVEEVVDVELVGDGQEQEARR
B2: SSAP_264: SEQ ID NO: 433; Cereibacter johrii (protein, listed as Cereibacter johrii)
chain: TENTAQAPAAARQLTPIQAISQTLESDAFAPKISASLDGTGISPARFKRAALACLSRPEASYLVEKCDRGSIFTAVMNAAAAELELHPALGQAYIVPRGGQAVLQVGYKGFIALASRAGLAVEADVIYAGDRFSIRKGTNPDVSVEPELDPAKRGEWVAVYVITHYASGAKTLTFMTRAEVEAIRNRYSDAYKRGGAGAKTWNESPEEMAKKTCIRRASKLWPISVPGGGDDDGGEVIEADPAPVPAPRMRDVTPGGGLDRLAASL
B3: SSAP_182: SEQ ID NO: 351; Lacrimispora sphenoides (protein)
chain: ADVKQELEKRAAGSGGQSVKLTKNMTIVDMVKALEPEIKRALPCILTPERFSRMALSAINNTPKLGECTPMSFIAALMNAAQLGLEPNTPLGQAYLIPYKNKGVLECQFQLGYRGLIDLAYRNERMQSIEAQVVYDNDEFSYELGLHPSLIHRPTFDEPGEIQAFYAIFRLDNGGFRFEVMSKNYVDSLCHALFKSIYFRFQSLEK
modifications: Lacrimispora sphenoides
B4: SSAP_304: SEQ ID NO: 473; Desulfobacteraceae bacterium (protein, listed as Desulfobacteraceae bacterium)
chain: ATPNTPTTTDAGDFLKKSEKSLKNYAVRKYDFTSFLKSAMIAINDNTTLSECLRTEAGKKSLFNAMRYAATTGLSLNPQEGKAALIGYKNKAGEMVLNYQIMKNGLIDLALSSGKVEFVTADLVRANDEFSIKKSASGDDYSFSPAIRDRGEVIGFVAALKLKGSATYVKWMSTEEVAEFRDKYSSMYKNRPDASPWTHSFNGMGIKTVMKALLRSVSISPDVDAAVKSDDYIEAEFTVHGTTADDAVTQLQTPSKPVKAEEGQGELL
B5: SSAP_89: SEQ ID NO: 258; Pantoea brenneri (protein, listed as Pantoea brenneri)
chain: SNQPPIASADLQKTQQSKQVANKTPEQTLVGFMNQPAMKSQLAAALPRHMTADRMIRIVTTEIRKTPQLAQCDQSSFIGAVVQCSQLGLEPGSALGHAYLLPFGNGRSKSGQSNVQLIIGYRGMIDLARRSGQIVSLSARVVRADDEFSFEYGLDENLVHRPGENEDAPITHVYAVARLKDGGTQFEVMTVKQVEKVKAQSKASSNGPWVTHWEEMAKKTVIRRLFKYLPVSIEMQKAVVLDEKAESDVDQDNASVLSAEYSVLESGDEATN
B6: SSAP_157: SEQ ID NO: 326; Pseudoflavonifractor sp. An184 (protein, listed as Pseudoflavonifractor sp.)
chain: ATEKAIQRATGRAPALENRPALQQYIKQMSGEIKKALPSVMTPERFTRIVLSALSTNPKLAETTPQSFLGAMMTAAQLGLEPNTPLGQAYLLPYWNSKANAYECQFQLGYKGLLDLAYRSGEISVIQAHVVYSEDQFSYSFGLKPELKHIPAGEERGEPVYVYAIFHTKDGGYGFEVCSIDDIRAHAQRYSKSFQNGPWQTNFEEMAKKTVLKRVLKYAPLKSEFLRGLAQDETIKQEISEDMYMVEAAYAEPDVSSAEND
B7: SSAP_60: SEQ ID NO: 229 (protein)
chain: ASKNEAIEVSPAEIASVKEKPASIVKAEKAKKEPCALVKYEDAEGREVVLTREDIINTISSNPRITDKEIKLFIELARAQKLNPFTREIFITKYGDYPATFIVGKDVFTKRAQSNPLFKGMQAGIIVQRGNAVDQREGSATFGDEMLIGGWCKVYVQGYDVPIYDSVSFNEYAARKTDGTLNAMWASKPATMIRKVAIVHALREAFPSDFQGLYDQSEMGLSGQGGE
B8: SSAP_13: SEQ ID NO: 182 (protein)
chain: ANELGIFSVDNLNMTTIKQYLDGGGKASDAELVLLINLCKQNNMNPFMKEVYFIKYGNQPAQIVVSRDFYRKRAFQNPNFVGIEVGVIVLNKDGVLEHNEGTFKTHEQELVGAWARVHLKNTEIPVYVAVSYDEYVQMKDGHPNKMWTNKPCTMLGKVAESQALRMAFPAEFSGTYGEEEFPEPEKEPREVNGVKEPDRAQIESFDKEDYAAKKIEELKEKAQPQKEVVEETGEVIDEEPLEGF
B9: SSAP_115: SEQ ID NO: 284; Lacrimispora amygdalina (protein, listed as Lacrimispora amygdalina)
chain: AVDVKNELERKASGQNSQVKLTKSMTIADMVKALEPEIKRALPAVLTPERFTRMALSAINNTPELAGCTPMSFIAAMMNAAQLGLEPNTPLGQAYLIPYKNKGVLECQFQIGYKGMIDLAYRTGQIQVIQGQAVREFDYFEYQYGLDPKLVHRPGEEERGEITFIYGLFRLSNGGYGFEVSNKADMDAFAAKYSKSFGSKYSPWTENYEDMAKKTVIKRALKYAPVSVDFQKAMSMDETIKTEISVDMSEIRNECPEISENGEAA
B10: SSAP_189: SEQ ID NO: 358; Asaia sp. W19 (protein, listed as Asaia sp.)
chain: SNALATPTEKLRTQITSMTGEFRNALPSHIKPEKFQRVVMTVVQQNQGLMNADRKSLLASCLKCAADGLIPDGREAALVMFGQQVQYMPMLAGIQKRIRNSGEIASIQAHVIYENDHFIWHQGIDASIEHRPLFPGDRGKAIGAYAVAKFKDGSDPQFEVMDVAAIEKVRAVSRAGKSGPWVQWWDEMARKTVFRRLSKWLPMDTEAEDLMRRDDENDAQDVAAPTIRVEAEAPSKLDALEHDDDGVVLEETRELEGSAA
B11: SSAP_156: SEQ ID NO: 325; Bacillus sp. AFS017336 (protein, listed as Bacillus sp.)
chain: ATNESLKNQITNKKTGEVPLTPAQQVSSYLKAYEGTFQQIAPKHFNTERFQRIALSEIRKNPKLLECSVPSLMSAVLQSVKLGLEPGLFGQAYLIPYGKEVQFQIGYRGLIELSQRSGRILKIQAREVYENDEFEVSYGIDDNIIHKPALDVDRGKVRLYYAVAWFKDGGAQFELMSISDVEKHRDKFSKTAKFGPWKDHFDEMAKKTVLKKLVKQLPMDVEFQEAVQEDETVRKTITDEPEILQAEFEIVDQPEISVE
B12: SSAP_9: SEQ ID NO: 178; Bet Gammaproteobacteria (protein)
chain: EKPKLIQRFAERFSVDPNKLFDTLKATAFKQRDGSAPTNEQMMALLVVADQYGLNPFTKEIFAFPDKQAGIIPVVGVDGWSRIINQHDQFDGMEFKTSENKVSLDGAKECPEWMECIIYRRDRSHPVKITEYLDEVYRPPFEGNGKNGPYRVDGPWQTHTKRMLRHKSMIQCSRIAFGFVGIFDQDEAERIIEGQATHVVEPSVIPPEQVDDRTRGLVYKLIERAEASNAWNSALEYANEHFQGVELTFAKQEIFNAQQQAAKALTQPLAS
modifications: Gammaproteobacteria
notes: Bet Gammaproteobacteria
B13: SSAP_174: SEQ ID NO: 343; Hespellia stercorisuis (protein, listed as Hespellia stercorisuis)
chain: ADIKEELAKKVAEGTEDKKKLTKSMSIADLIKAMEPEIKKALPEVITPERFTRMALSALNTTPKLKECTQTSFLTALMNAAQLGLEPNTPLGQAYLIPYKNKGNLECQFQIGYKGLIDLSYRNRQMQIIQAQAVYENDEFEYELGLNPVLVHRPALQNRGAVKLFYGIFKLTNGGFGFEVMSKADMDAYAKEYSKAFDSSFSPWKSNYIGMAKKTVIKQAIKYAPLKTDFRKALSTDETIKTEFCEDMSEVQCKDIWDTEYKERSA

Legend:
Format in all cases: cell-based
gene editing with Cas9 = experiment: Screen of 322 new SSAP proteins, gene editing activity with Cas9 (Table 5); set-up: Cas9 with SSAP activity: scale not given here
Outline: (§1)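 Read-out is gene editing activity. Candidates come from sequence data mining, are made synthetically, and are tested alongside either nuclease-active Cas9 or catalytically dead dCas9.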

gene editing with dCas9 = experiment: Screen of 322 new SSAP proteins, gene editing activity with dCas9 (Table 5); set-up: dCas9 with SSAP activity: scale not given here
Outline: as §1

[1] = test system: gene editing with Cas9 and dCas9; experiment: Screen of 322 new SSAP proteins, activity across all experiments (Cas9 and dCas9, Table 5); set-up: scale not given here
Outline: as §1

Molecule	Cas9 with SSAP activity (gene editing with Cas9)	Cas9 with SSAP activity (normalized) (gene editing with Cas9)	dCas9 with SSAP activity (gene editing with dCas9)	dCas9 with SSAP activity (normalized) (gene editing with dCas9)	Activity across all experiments [1]
B1	−1.938	−1.023	−5.577	−0.839	−3.758
B2	0.565	0.375	−5.815	−0.919	−2.625
B3	−1.549	−1.689	−5.663	−0.742	−3.606
B4	−2.690	−0.447	−5.835	−0.886	−4.262
B5	0.562	0.533	0.225	0.240	0.393
B6	−3.533	−1.181	−5.734	−0.898	−4.633
B7	0.757	0.560	0.311	0.109	0.534
B8	−0.463	−0.403	−5.545	−0.758	−3.004
B9	−4.259	−0.733	−5.725	−1.307	−4.992
B10	−0.440	−2.025	−5.652	−0.952	−3.046
B11	0.844	2.230	−5.389	−0.877	−2.272
B12	−0.503	−1.380	−5.773	−1.126	−3.138
B13	−3.891	−0.617	−5.563	−1.144	−4.727
